Assay [1] deals with Candida albicans (Cat. No. 10231, ATCC) whole cells (Candida albicans). As to the kind of experiment: luminescent ELISA, Fab on C. albicans cells. For orientation: In an ELISA, binding on a coated surface is turned into a signal by an enzyme label.
For assay [2] the target is unchanged. As to the kind of experiment: luminescent C. albicans ELISA, Fab; assay background 950.
For assay [3] the target is unchanged. As to the kind of experiment: converted from Table 20a with a Fab of about 50 kDa.
The target is the same in assay [4]. As to the kind of experiment: C. albicans FACS, mean FITC fluorescence, Fab; assay background 100.
The target is the same in assay [5]. As to the kind of experiment: FACS, IgG on fixed cells. A general note: Flow cytometry measures light scatter and fluorescence of single cells or particles in a stream.
Assay [6] has as its target Candida krusei clinical isolate, whole cells (Candida krusei). As to the kind of experiment: FACS, IgG on fixed cells.

B1: 1H12 Fab (Fab, V domains shown)
VH: EVQLVESGGGLVKAGGSLILSCGVSNFRISAHTMNWVRRVPGGGLEWVASISTSSTYRDYADAVKGRFTVSRDDLEDFVYLQMHKMRVEDTAIYYCARKGSDRLSDNDPFDAWGPGTVVTVSP
VL: GVVMTQSPSTLSASVGDTITITCRASQSIETWLAWYQQKPGKAPKLLIYKASTLKTGVPSRFSGSGSGTEFTLTISGLQFDDFATYHCQHYMPYRASFGQGTRVEIKR
Consider B1, for which the Approximate Affinity in assay [1] was found to be 9 µg/mL. The ELISA (RFU) in assay [2] amounted to 1710 RFU. Also, in assay [3], the affinity (converted to molar) stood at 180 nM. In assay [4], this molecule gave an FACS (MF) of 2080 MF.

B2: ID-2-RD4-P1A5 Fab (Fab, V domains shown)
VH: EVQLVESGGGLVKAGGSLILSCGVSNFRISAHTMNWVRRVPGGGLEWVASISTSSTYRDYADAVKGRFTVSRDDLEDFVYLQMHKMRVEDTAIYYCARKGSDRLSDNDPFDAWGPGTVVTVSP
VL: GVVMTQSPSTLSASVGDTITITCRASQSIETWLAWYQQKPGKAPKLLIYKASTLKTGVPSRFSGSGSGTEFTLTISGLQFDDFATYHCQHYLSYNATFGQGTRVEIKR
The molecule B2 registered an ELISA (RFU) in assay [2] of 8140 RFU. In assay [4], this molecule gave an FACS (MF) of 4000 MF.

B3: A1G7 Fab (Fab, V domains shown)
VH: EVQLVESGGGLVKAGGSLILSCGVSNFRISAHTMNWVRRVPGGGLEWVASISTSSTYRDYADAVKGRFTVSRDDLEDFVYLQMHKMRVEDTAIYYCARKGSDRLSDNDPFDAWGPGTVVTVSP
VL: GVVMTQSPSTLSASVGDTITITCRASQSIETWLAWYQQKPGKAPKLLIYKASTLKTGVPSRFSGSGSGTEFTLTISGLQFDDFATYHCQHYTDHRGATFGQGTRVEIKR
With B3, the Approximate Affinity in assay [1] was 1.5 µg/mL. For the same molecule, the affinity (converted to molar) in assay [3] worked out at 30 nM.

B4: ID-1-RD4-P2G9 Fab (Fab, V domains shown)
VH: EVQLVESGGGLVKAGGSLILSCGVSNFRISAHTMNWVRRVPGGGLEWVASISTSSTYRDYADAVKGRFTVSRDDLEDFVYLQMHKMRVEDTAIYYCARKGSDRLSDNDPFDAWGPGTVVTVSP
VL: GVVMTQSPSTLSASVGDTITITCRASQSIETWLAWYQQKPGKAPKLLIYKASTLKTGVPSRFSGSGSGTEFTLTISGLQFDDFATYHCQHYQPFDATFGQGTRVEIKR
The molecule B4 registered an ELISA (RFU) in assay [2] of 4000 RFU. This molecule gave an FACS (MF) in assay [4] of 2350 MF.

B5: A1G7 IgG (antibody, V domains shown)
VH: EVQLVESGGGLVKAGGSLILSCGVSNFRISAHTMNWVRRVPGGGLEWVASISTSSTYRDYADAVKGRFTVSRDDLEDFVYLQMHKMRVEDTAIYYCARKGSDRLSDNDPFDAWGPGTVVTVSP
VL: GVVMTQSPSTLSASVGDTITITCRASQSIETWLAWYQQKPGKAPKLLIYKASTLKTGVPSRFSGSGSGTEFTLTISGLQFDDFATYHCQHYTDHRGATFGQGTRVEIKR
As to B5, the affinity in assay [5] and in assay [6] was 50 nM in each case.

B6: A1E8 IgG (antibody, V domains shown)
VH: EVQLVESGGGLVKAGGSLILSCGVSNFRISAHTMNWVRRVPGGGLEWVASISTSSTYRDYADAVKGRFTVSRDDLEDFVYLQMHKMRVEDTAIYYCARKGSDRLSDNDPFDAWGPGTVVTVSP
VL: GVVMTQSPSTLSASVGDTITITCRASQSIETWLAWYQQKPGKAPKLLIYKASTLKTGVPSRFSGSGSGTEFTLTISGLQFDDFATYHCQHYTDHKGATFGQGTRVEIKR
For the molecule B6, the affinity in assay [5] and in assay [6] was 50 nM throughout.

B7: ID-1-RD5-P2H8 Fab (Fab, V domains shown)
VH: EVQLVESGGGLVKAGGSLILSCGVSNFRISAHTMNWVRRVPGGGLEWVASISTSSTYRDYADAVKGRFTVSRDDLEDFVYLQMHKMRVEDTAIYYCARKGSDRLSDNDPFDAWGPGTVVTVSP
VL: GVVMTQSPSTLSASVGDTITITCRASQSIETWLAWYQQKPGKAPKLLIYKASTLKTGVPSRFSGSGSGTEFTLTISGLQFDDFATYHCQHYREWHATFGQGTRVEIKR
B7 displayed an ELISA (RFU) in assay [2] of 3500 RFU. In assay [4], this molecule displayed an FACS (MF) of 4930 MF.

B8: ID-2-RD6-P1H11 Fab (Fab, V domains shown)
VH: EVQLVESGGGLVKAGGSLILSCGVSNFRISAHTMNWVRRVPGGGLEWVASISTSSTYRDYADAVKGRFTVSRDDLEDFVYLQMHKMRVEDTAIYYCARKGSDRLSDNDPFDAWGPGTVVTVSP
VL: GVVMTQSPSTLSASVGDTITITCRASQSIETWLAWYQQKPGKAPKLLIYKASTLKTGVPSRFSGSGSGTEFTLTISGLQFDDFATYHCQHYMAYDATFGQGTRVEIKR
B8: the ELISA (RFU) in assay [2] came to 13000 RFU. Further, in assay [4], the FACS (MF) was determined as 3760 MF.

B9: A2A12 IgG (antibody, V domains shown)
VH: EVQLVESGGGLVKAGGSLILSCGVSNFRISAHTMNWVRRVPGGGLEWVASISTSSTYRDYADAVKGRFTVSRDDLEDFVYLQMHKMRVEDTAIYYCARKGSDRLSDNDPFDAWGPGTVVTVSP
VL: GVVMTQSPSTLSASVGDTITITCRASQSIETWLAWYQQKPGKAPKLLIYKASTLKTGVPSRFSGSGSGTEFTLTISGLQFDDFATYHCQHYTAHTGATFGQGTRVEIKR
With B9, the affinity in assay [5] and in assay [6] was 50 nM throughout.

B10: ID-2-RD6-P1H10 Fab (Fab, V domains shown)
VH: EVQLVESGGGLVKAGGSLILSCGVSNFRISAHTMNWVRRVPGGGLEWVASISTSSTYRDYADAVKGRFTVSRDDLEDFVYLQMHKMRVEDTAIYYCARKGSDRLSDNDPFDAWGPGTVVTVSP
VL: GVVMTQSPSTLSASVGDTITITCRASQSIETWLAWYQQKPGKAPKLLIYKASTLKTGVPSRFSGSGSGTEFTLTISGLQFDDFATYHCQHYQPFKATFGQGTRVEIKR
Regarding B10, in assay [2], the ELISA (RFU) was 5000 RFU. In addition, the FACS (MF) in assay [4] was 2190 MF.

B11: ID-3-RD5-P2E9 Fab (Fab, V domains shown)
VH: EVQLVESGGGLVKAGGSLILSCGVSNFRISAHTMNWVRRVPGGGLEWVASISTSSTYRDYADAVKGRFTVSRDDLEDFVYLQMHKMRVEDTAIYYCARKGSDRLSDNDPFDAWGPGTVVTVSP
VL: GVVMTQSPSTLSASVGDTITITCRASQSIETWLAWYQQKPGKAPKLLIYKASTLKTGVPSRFSGSGSGTEFTLTISGLQFDDFATYHCQHYTPHFGATFGQGTRVEIKR
On to B11, for which the ELISA (RFU) in assay [2] was determined as 8000 RFU. This molecule also gave an FACS (MF) in assay [4] of 8910 MF.

B12: A4F10 Fab (Fab, V domains shown)
VH: EVQLVESGGGLVKAGGSLILSCGVSNFRISAHTMNWVRRVPGGGLEWVASISTSSTYRDYADAVKGRFTVSRDDLEDFVYLQMHKMRVEDTAIYYCARKGSDRLSDNDPFDAWGPGTVVTVSP
VL: GVVMTQSPSTLSASVGDTITITCRASQSIETWLAWYQQKPGKAPKLLIYKASTLKTGVPSRFSGSGSGTEFTLTISGLQFDDFATYHCQHYTDHYGATFGQGTRVEIKR
In assay [1], B12 yielded an Approximate Affinity of 1 µg/mL. Further, the affinity (converted to molar) in assay [3] was determined as 20 nM.

B13: P2H12 Fab (Fab, V domains shown)
VH: EVQLVESGGGLVKAGGSLILSCGVSNFRISAHTMNWVRRVPGGGLEWVASISTSSTYRDYADAVKGRFTVSRDDLEDFVYLQMHKMRVEDTAIYYCARKGSDRLSDNDPFDAWGPGTVVTVSP
VL: GVVMTQSPSTLSASVGDTITITCRASQSIETWLAWYQQKPGKAPKLLIYKASTLKTGVPSRFSGSGSGTEFTLTISGLQFDDFATYHCQHYTDHHGATFGQGTRVEIKR
B13 came in with an Approximate Affinity in assay [1] of 2 µg/mL. The affinity (converted to molar) in assay [3] was 40 nM.

B14: ID-3-RD6-P1H10 Fab (Fab, V domains shown)
VH: EVQLVESGGGLVKAGGSLILSCGVSNFRISAHTMNWVRRVPGGGLEWVASISTSSTYRDYADAVKGRFTVSRDDLEDFVYLQMHKMRVEDTAIYYCARKGSDRLSDNDPFDAWGPGTVVTVSP
VL: GVVMTQSPSTLSASVGDTITITCRASQSIETWLAWYQQKPGKAPKLLIYKASTLKTGVPSRFSGSGSGTEFTLTISGLQFDDFATYHCQHYTAHNGATFGQGTRVEIKR
With B14, in assay [2], the ELISA (RFU) was found to be 50000 RFU. This molecule yielded an FACS (MF) in assay [4] of 3380 MF.

B15: A4F10 IgG (antibody, V domains shown)
VH: EVQLVESGGGLVKAGGSLILSCGVSNFRISAHTMNWVRRVPGGGLEWVASISTSSTYRDYADAVKGRFTVSRDDLEDFVYLQMHKMRVEDTAIYYCARKGSDRLSDNDPFDAWGPGTVVTVSP
VL: GVVMTQSPSTLSASVGDTITITCRASQSIETWLAWYQQKPGKAPKLLIYKASTLKTGVPSRFSGSGSGTEFTLTISGLQFDDFATYHCQHYTDHYGATFGQGTRVEIKR
On to B15, for which the affinity in assay [5] and in assay [6] was 50 nM throughout.

B16: P2H12 IgG (antibody, V domains shown)
VH: EVQLVESGGGLVKAGGSLILSCGVSNFRISAHTMNWVRRVPGGGLEWVASISTSSTYRDYADAVKGRFTVSRDDLEDFVYLQMHKMRVEDTAIYYCARKGSDRLSDNDPFDAWGPGTVVTVSP
VL: GVVMTQSPSTLSASVGDTITITCRASQSIETWLAWYQQKPGKAPKLLIYKASTLKTGVPSRFSGSGSGTEFTLTISGLQFDDFATYHCQHYTDHHGATFGQGTRVEIKR
On to B16, for which the affinity in assay [5] and in assay [6] was 50 nM each time.

B17: ID-3-RD5-P2H7 Fab (Fab, V domains shown)
VH: EVQLVESGGGLVKAGGSLILSCGVSNFRISAHTMNWVRRVPGGGLEWVASISTSSTYRDYADAVKGRFTVSRDDLEDFVYLQMHKMRVEDTAIYYCARKGSDRLSDNDPFDAWGPGTVVTVSP
VL: GVVMTQSPSTLSASVGDTITITCRASQSIETWLAWYQQKPGKAPKLLIYKASTLKTGVPSRFSGSGSGTEFTLTISGLQFDDFATYHCQHYRAHSGATFGQGTRVEIKR
In assay [2], B17 returned an ELISA (RFU) of 27000 RFU. The molecule also came in with an FACS (MF) in assay [4] of 10600 MF.

B18: ID-1-RD4-P2C10 Fab (Fab, V domains shown)
VH: EVQLVESGGGLVKAGGSLILSCGVSNFRISAHTMNWVRRVPGGGLEWVASISTSSTYRDYADAVKGRFTVSRDDLEDFVYLQMHKMRVEDTAIYYCARKGSDRLSDNDPFDAWGPGTVVTVSP
VL: GVVMTQSPSTLSASVGDTITITCRASQSIETWLAWYQQKPGKAPKLLIYKASTLKTGVPSRFSGSGSGTEFTLTISGLQFDDFATYHCQHYKPFMATFGQGTRVEIKR
As to B18, the ELISA (RFU) in assay [2] was found to be 7900 RFU. The molecule also gave an FACS (MF) in assay [4] of 10600 MF.

The values above are taken from patent US20110189183A1.
